Data on 1 molecule can be found in patent EP3873932A1.

For experiment [1], the target named is human amyloidomas of lambda subtypes. The experiment in a line: in vivo microPET of mice implanted with lambda subtype amyloid.
For experiment [2], the target named is human amyloidomas of kappa subtypes. The experiment in a line: in vivo microPET of mice implanted with kappa subtype amyloid.
Experiment [3] has as its target human amyloidomas (all implanted human amyloid extracts). The experiment in a line: in vivo microPET, 4 days after tracer injection.
Experiment [4] has the same target. The experiment in a line: in vivo microPET.

B1: [124I]CAEL-101 (antibody, human IgG1, V domains shown)
VH: QVQLKESGPGLVAPSQSLSITCTVSGFSLSSYGVSWVRQPPGKGLEWLGVIWGDGSTNYHPNLMSRLSISKDISKSQVLFKLNSLQTDDTATYYCVTLDYWGQGTSVTVSS
VL: DVVMTQTPLSLPVSLGDQASISCRSSQSLVHRNGNTYLHWYLQKPGQSPKLLIYKVSNRFSGVPRDFSGSGSGTDFTLKISRVEAEDLGLYFCFQTTYVPNTFGGGTKLEIK
modifications: 124I radiolabel by the standard iodogen reaction (residues and chain not stated)
Turning to B1, the T:B ratio (amyloid deposit-to-background, SUVmax) in experiment [1] was 2.8; in experiment [2], 4.1; in experiment [3], 2.1 to 4.2. The T:B uptake (amyloid deposit-to-background) in experiment [4] is over 2.1.
